Laboratory results: PMC3877283, “Development of Novel Radiogallium-Labeled Bone Imaging Agents Using Oligo-Aspartic Acid Peptides as Carriers” (PLoS ONE, 2013)
Where two headings read alike, the source gives them in different places. Peptide text beside a SMILES is read from it. * marks the point of attachment. DOTA = O=C(O)CN1CCN(CC(=O)O)CCN(CC(=O)*)CCN(CC(=O)O)CC1

Test: Biodistribution experiments in normal mice
Type: in vivo, ddY mice
Conditions: for F/B ratio (Femur:blood ratio) / tissue uptake dose at 1 h / tissue uptake dose at 3 h / tissue uptake dose at 10 min: male ddY mice, no pretreatment, mean (SD) for four or five animals; for tissue uptake dose at 1 h / tissue uptake dose at 3 h / tissue uptake dose at 10 min: mouse, in vivo, iv, 37 kBq/100 uL, total radioactivity
Procedure: Experiments with animals were conducted in strict accordance with the Guidelines for the Care and Use of Laboratory Animals of Kanazawa University. The animal experimental protocols used were approved by the Committee on Animal Experimentation of Kanazawa University (Permit Number: AP-132633). Biodistribution experiments were performed after an intravenous administration of each diluted tracer solution (37 kBq/100 µL) to 6-week-old male ddY mice (27–32 g, Japan SLC, Inc., Hamamatsu, Japan). To investigate the effect of an excess amount of bisphosphonate on biodistribution, alendronate (20 mg/kg) was intravenously administered to mice 1 minute before the intravenous injection of ^67Ga-DOTA-(Asp)14 or ^67Ga-DOTA-Bn-SCN-HBP. Four to six mice each were sacrificed by decapitation at 10, 60, and 180 minutes post-injection. Tissues of interest were removed and weighed. Complete left femurs were isolated as representative bone samples, radioactivity was determined using an auto well gamma counter, and counts were corrected for background radiation and physical decay during counting.

SMILES: O=C(O)C[C@H](NC(=O)[C@H](CC(=O)O)NC(=O)[C@H](CC(=O)O)NC(=O)[C@H](CC(=O)O)NC(=O)[C@H](CC(=O)O)NC(=O)[C@H](CC(=O)O)NC(=O)[C@H](CC(=O)O)NC(=O)[C@H](CC(=O)O)NC(=O)[C@H](CC(=O)O)NC(=O)[C@H](CC(=O)O)NC(=O)[C@H](CC(=O)O)NC(=O)CN1CCN(CC(=O)O)CCN(CC(=O)O)CCN(CC(=O)O)CC1)C(=O)O [67Ga-DOTA-(Asp)11, metal not drawn] ({DOTA}-DDDDDDDDDDD-OH)
- F/B ratio (Femur:blood ratio) (10 min after i.v. administration): 8.71 (0.73)
- F/B ratio (Femur:blood ratio) (60 min after i.v. administration): 156.07 (45.00)
- F/B ratio (Femur:blood ratio) (180 min after i.v. administration): 501.32 (156.89)
- tissue uptake dose at 1 h (male, ddY, Blood, 60 min after i.v. administration, read-out: Radioactivity in Blood): 0.11 %ID
- tissue uptake dose at 3 h (male, ddY, Blood, 180 min after i.v. administration, read-out: Radioactivity in Blood): 0.03 %ID
- tissue uptake dose at 10 min (male, ddY, Bone (complete left femur), 10 min after i.v. administration, read-out: Radioactivity in Bone (Femur)): 13.1 %ID
- tissue uptake dose at 1 h (male, ddY, Bone (complete left femur), 60 min after i.v. administration, read-out: Radioactivity in Bone (Femur)): 16.3 %ID
- tissue uptake dose at 3 h (male, ddY, Bone (complete left femur), 180 min after i.v. administration, read-out: Radioactivity in Bone (Femur)): 13.9 %ID
- tissue uptake dose at 10 min (male, ddY, Brain, 10 min after i.v. administration, read-out: Radioactivity in Brain): 0.05 %ID
- tissue uptake dose at 1 h (male, ddY, Brain, 60 min after i.v. administration, read-out: Radioactivity in Brain): 0.02 %ID
- tissue uptake dose at 3 h (male, ddY, Brain, 180 min after i.v. administration, read-out: Radioactivity in Brain): 0.01 %ID
- tissue uptake dose at 10 min (male, ddY, Heart, 10 min after i.v. administration, read-out: Radioactivity in Heart): 0.55 %ID
- tissue uptake dose at 1 h (male, ddY, Heart, 60 min after i.v. administration, read-out: Radioactivity in Heart): 0.08 %ID
- tissue uptake dose at 3 h (male, ddY, Heart, 180 min after i.v. administration, read-out: Radioactivity in Heart): 0.02 %ID
- tissue uptake dose at 10 min (male, ddY, Kidney, 10 min after i.v. administration, read-out: Radioactivity in Kidney): 16 %ID
- tissue uptake dose at 1 h (male, ddY, Kidney, 60 min after i.v. administration, read-out: Radioactivity in Kidney): 1.76 %ID
- tissue uptake dose at 3 h (male, ddY, Kidney, 180 min after i.v. administration, read-out: Radioactivity in Kidney): 0.8 %ID
- tissue uptake dose at 10 min (male, ddY, Large-intestine, 10 min after i.v. administration, read-out: Radioactivity in Large-intestine): 0.27 %ID
- tissue uptake dose at 1 h (male, ddY, Large-intestine, 60 min after i.v. administration, read-out: Radioactivity in Large-intestine): 0.06 %ID
- tissue uptake dose at 3 h (male, ddY, Large-intestine, 180 min after i.v. administration, read-out: Radioactivity in Large-intestine): 0.13 %ID
- tissue uptake dose at 10 min (male, ddY, Liver, 10 min after i.v. administration, read-out: Radioactivity in Liver): 0.44 %ID
- tissue uptake dose at 1 h (male, ddY, Liver, 60 min after i.v. administration, read-out: Radioactivity in Liver): 0.07 %ID
- tissue uptake dose at 3 h (male, ddY, Liver, 180 min after i.v. administration, read-out: Radioactivity in Liver): 0.05 %ID
- tissue uptake dose at 10 min (male, ddY, Lung, 10 min after i.v. administration, read-out: Radioactivity in Lung): 1.11 %ID
- tissue uptake dose at 1 h (male, ddY, Lung, 60 min after i.v. administration, read-out: Radioactivity in Lung): 0.12 %ID
- tissue uptake dose at 3 h (male, ddY, Lung, 180 min after i.v. administration, read-out: Radioactivity in Lung): 0.04 %ID
- tissue uptake dose at 10 min (male, ddY, Muscle, 10 min after i.v. administration, read-out: Radioactivity in Muscle): 0.48 %ID
- tissue uptake dose at 1 h (male, ddY, Muscle, 60 min after i.v. administration, read-out: Radioactivity in Muscle): 0.13 %ID
- tissue uptake dose at 3 h (male, ddY, Muscle, 180 min after i.v. administration, read-out: Radioactivity in Muscle): 0.08 %ID
- tissue uptake dose at 10 min (male, ddY, Pancreas, 10 min after i.v. administration, read-out: Radioactivity in Pancreas): 0.62 %ID
- tissue uptake dose at 1 h (male, ddY, Pancreas, 60 min after i.v. administration, read-out: Radioactivity in Pancreas): 0.07 %ID
- tissue uptake dose at 3 h (male, ddY, Pancreas, 180 min after i.v. administration, read-out: Radioactivity in Pancreas): 0.05 %ID
- tissue uptake dose at 10 min (male, ddY, Small-intestine, 10 min after i.v. administration, read-out: Radioactivity in Small-intestine): 0.41 %ID
- tissue uptake dose at 1 h (male, ddY, Small-intestine, 60 min after i.v. administration, read-out: Radioactivity in Small-intestine): 0.27 %ID
- tissue uptake dose at 3 h (male, ddY, Small-intestine, 180 min after i.v. administration, read-out: Radioactivity in Small-intestine): 0.05 %ID
- tissue uptake dose at 10 min (male, ddY, Spleen, 10 min after i.v. administration, read-out: Radioactivity in Spleen): 0.31 %ID
- tissue uptake dose at 1 h (male, ddY, Spleen, 60 min after i.v. administration, read-out: Radioactivity in Spleen): 0.09 %ID
- tissue uptake dose at 3 h (male, ddY, Spleen, 180 min after i.v. administration, read-out: Radioactivity in Spleen): 0.04 %ID
- tissue uptake dose at 10 min (male, ddY, Stomach (footnote b), 10 min after i.v. administration, read-out: Radioactivity in Stomach): 0.21 %ID
- tissue uptake dose at 1 h (male, ddY, Stomach (footnote b), 60 min after i.v. administration, read-out: Radioactivity in Stomach): 0.18 %ID
- tissue uptake dose at 3 h (male, ddY, Stomach (footnote b), 180 min after i.v. administration, read-out: Radioactivity in Stomach): 0.04 %ID
- tissue uptake dose at 10 min (Blood, 10 min after i.v. administration (37 kBq/100 µL), gamma counter, read-out: Radioactivity in Blood): 1.51 %ID
- accumulation of radioactivity in the femur (in words) (normal mice, i.v.): higher accumulation
